Measured values taken from PMC6544321.

How the values were obtained:
[1] = target: yeast single-chain H2A.Z-H2B (yeast); assay: ITC; MicroCal VP-ITC, 25°C, 20 mM MES (pH 6.0), 0.5 M NaCl; chaperone (50 or 150 μM) injected into histones (5 μM scZB or 15 μM scAB and mutants) in the cell; one-site fit
[2] = target: single chain H2A-H2B with H2A P50A/N91G (yeast); assay: as above
[3] = target: single-chain H2A.Z-H2B with H2A.Z RA→GNV (yeast); assay: as above
[4] = target: single-chain H2A.Z-H2B with H2A.Z A57P/G98N (yeast); assay: as above
[5] = target: single-chain H2A.Z-H2B with H2B Y45A/M62A (yeast); assay: as above
[6] = target: single-chain H2A.Z-H2B with H2A.Z A57P (yeast); assay: as above
[7] = target: single-chain H2A.Z-H2B with H2A.Z G98N (yeast); assay: as above
[8] = target: yeast single-chain H2A.Z-H2B (yeast); assay: ITC; 0.2 M NaCl (Table 1); Swc2-Z or Chz1-M injected into single-chain histone dimers; otherwise as the ITC methods (25°C, 20 mM MES pH 6.0)

B1: full-length Chz1 (natural protein)
chain: MSDEAKEKRELESQKESSHNKSEKSVEPKPKRRRRRNYDDYDAEVAKEETKAKNGLTKSENNGTVEDSESDMDDAKLDALMGNEGEEEEDDLAEIDTSNIITSGRRTRGKVIDYKKTAEELDKKEPSTGSKDDVGYGEKEEDDEDEEDDDFKE
Binder B1 has a Kd [1] of 130 nM and a stoichiometry N [1] of 1 sites.

B2: middle and C-terminal region of Chz1 (Chz1 64-153) (domain or fragment)
chain: TVEDSESDMDDAKLDALMGNEGEEEEDDLAEIDTSNIITSGRRTRGKVIDYKKTAEELDKKEPSTGSKDDVGYGEKEEDDEDEEDDDFKE
B2 gave a Kd [1] of 120 nM, a stoichiometry N [1] of 0.9 sites and a Kd [2] of 160 nM. The stoichiometry N [2] was 1.1 sites, the Kd [3] was 190 nM and the stoichiometry N [3] was 1 sites. It also gave a Kd [4] of 3390 nM, a stoichiometry N [4] of 1.1 sites and a Kd [5] of 1120 nM. The stoichiometry N [5] was 0.8 sites, the Kd [6] was 740 nM and the stoichiometry N [6] was 1 sites. For the same binder, the Kd [7] was 970 nM and the stoichiometry N [7] was 0.9 sites.

B3: middle region of Chz1 (Chz1 64-124) (domain or fragment)
chain: TVEDSESDMDDAKLDALMGNEGEEEEDDLAEIDTSNIITSGRRTRGKVIDYKKTAEELDKK
Binder B3 has a Kd [1] of 1060 nM, a stoichiometry N [1] of 1 sites and a Kd [8] of 20 nM. The stoichiometry N [8] was 1 sites.
